We go through two molecules from publication PMC2871463 (The Journal of Biological Chemistry, 2010).

Test [1] deals with T1, bone morphogenetic protein-1 (BMP-1), recombinant human (human, UniProt P13497-2 121-730).
T1 sequence (looked up): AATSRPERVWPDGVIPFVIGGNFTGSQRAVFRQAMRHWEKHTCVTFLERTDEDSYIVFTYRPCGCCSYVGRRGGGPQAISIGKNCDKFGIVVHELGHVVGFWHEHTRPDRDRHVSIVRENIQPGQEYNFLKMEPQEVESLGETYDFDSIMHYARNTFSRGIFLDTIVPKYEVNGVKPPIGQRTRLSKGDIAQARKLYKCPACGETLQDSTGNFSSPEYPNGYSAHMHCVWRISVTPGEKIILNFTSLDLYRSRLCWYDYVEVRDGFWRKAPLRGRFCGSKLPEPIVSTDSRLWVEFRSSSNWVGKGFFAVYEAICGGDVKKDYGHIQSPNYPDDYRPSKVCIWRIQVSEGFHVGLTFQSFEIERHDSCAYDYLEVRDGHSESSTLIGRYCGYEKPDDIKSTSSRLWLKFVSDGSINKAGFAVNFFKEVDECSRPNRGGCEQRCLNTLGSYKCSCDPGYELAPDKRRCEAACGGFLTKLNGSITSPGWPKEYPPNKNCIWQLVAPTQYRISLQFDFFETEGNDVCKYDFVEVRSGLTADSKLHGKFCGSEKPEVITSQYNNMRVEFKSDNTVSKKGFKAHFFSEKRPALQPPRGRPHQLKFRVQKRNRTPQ
Put plainly: SPR.

For test [2], the target named is T2, matrix metalloproteinase-2 (MMP-2), recombinant human (human, UniProt P08253 30-660).
T2 sequence (looked up): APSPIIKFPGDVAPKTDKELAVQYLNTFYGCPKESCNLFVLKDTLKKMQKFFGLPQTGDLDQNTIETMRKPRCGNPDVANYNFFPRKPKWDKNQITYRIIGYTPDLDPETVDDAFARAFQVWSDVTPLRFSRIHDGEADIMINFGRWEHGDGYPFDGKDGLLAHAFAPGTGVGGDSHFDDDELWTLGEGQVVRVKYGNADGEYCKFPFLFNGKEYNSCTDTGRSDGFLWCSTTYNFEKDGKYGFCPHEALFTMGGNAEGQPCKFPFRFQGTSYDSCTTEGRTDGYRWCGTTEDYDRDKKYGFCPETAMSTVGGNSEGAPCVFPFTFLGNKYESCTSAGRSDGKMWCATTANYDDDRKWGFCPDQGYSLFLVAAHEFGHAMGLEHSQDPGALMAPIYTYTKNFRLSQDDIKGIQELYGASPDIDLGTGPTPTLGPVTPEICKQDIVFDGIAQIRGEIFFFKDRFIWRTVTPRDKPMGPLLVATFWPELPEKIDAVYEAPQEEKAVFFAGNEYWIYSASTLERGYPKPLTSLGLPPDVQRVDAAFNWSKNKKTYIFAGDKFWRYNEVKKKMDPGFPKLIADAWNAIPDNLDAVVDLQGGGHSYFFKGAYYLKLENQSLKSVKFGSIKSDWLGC
Put plainly: SPR. A general note: In SPR one partner is held on a chip, and binding of the other changes the refractive index at the surface.

B1: procollagen C-proteinase enhancer-1 (PCPE-1), full-length, recombinant human (natural protein, UniProt Q15113 26-449, looked up)
chain: QTPNYTRPVFLCGGDVKGESGYVASEGFPNLYPPNKECIWTITVPEGQTVSLSFRVFDLELHPACRYDALEVFAGSGTSGQRLGRFCGTFRPAPLVAPGNQVTLRMTTDEGTGGRGFLLWYSGRATSGTEHQFCGGRLEKAQGTLTTPNWPESDYPPGISCSWHIIAPPDQVIALTFEKFDLEPDTYCRYDSVSVFNGAVSDDSRRLGKFCGDAVPGSISSEGNELLVQFVSDLSVTADGFSASYKTLPRGTAKEGQGPGPKRGTEPKVKLPPKSQPPEKTEESPSAPDAPTCPKQCRRTGTLQSNFCASSLVVTATVKSMVREPGEGLAVTVSLIGAYKTGGLDLPSPPTGASLKFYVPCKQCPPMKKGVSYLLMGQVEENRGPVLPPESFVVLHRPNQDQILTNLSKRKCPSQPVRAAASQD
On to B1, for which, in test [1], the “KD of site 1 (two binding sites model)” value is 129 ± 19 nM and the “KD of site 2 (two binding sites model)” value stood at 5200 ± 500 nM.

B2: NTRshort (NTRs), short form of the netrin-like (NTR) domain of human PCPE-1 starting at Cys318 (domain or fragment, UniProt Q15113 318-449, looked up)
chain: CPKQCRRTGTLQSNFCASSLVVTATVKSMVREPGEGLAVTVSLIGAYKTGGLDLPSPPTGASLKFYVPCKQCPPMKKGVSYLLMGQVEENRGPVLPPESFVVLHRPNQDQILTNLSKRKCPSQPVRAAASQD
As usually defined, the Kd is the constant that tells how readily two partners part at equilibrium. Regarding B2, the Kd in test [2] is not below 1000 nM.
